{"source": "patent US20200038441A1", "about": "(NANTKWEST, published 2020)", "target": "PD-L1 on SUP-B15 PD-L1+ cells (UniProt Q9NZQ7 19-290, limits assumed)", "sequence (Q9NZQ7 19-290 limits assumed)": "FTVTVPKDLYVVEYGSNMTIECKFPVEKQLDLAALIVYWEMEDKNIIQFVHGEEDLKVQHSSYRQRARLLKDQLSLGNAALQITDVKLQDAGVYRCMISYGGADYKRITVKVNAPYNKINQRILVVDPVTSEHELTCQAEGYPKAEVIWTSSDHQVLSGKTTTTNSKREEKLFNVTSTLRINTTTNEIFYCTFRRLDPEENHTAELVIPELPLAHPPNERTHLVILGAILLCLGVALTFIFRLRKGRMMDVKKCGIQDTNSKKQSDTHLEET", "assay": "cell-based or functional assay", "data": [{"binder": "PD-L1 CAR expressed on aTGFβ/PD-L1 t-haNK cells (other) MDWIWRILFLVGAATGAHSAQPANIQMTQSPSSVSASVGDRVTITCRASQDISRWLAWYQQKPGKAPKLLIYAASSLQSGVPSRFSGSGSGTDFALTISSLQPEDFATYYCQQADSRFSITFGQGTRLEIKGGGGSGGGGSGGGGSGGGGSEVQLVQSGGGLVQPGGSLRLSCAASGFTFSSYSMNWVRQAPGKGLEWVSYISSSSSTIQYADSVKGRFTISRDNAKNSLYLQMNSLRDEDTAVYYCARGDYYYGMDVWGQGTTVTVSSAAALSNSIMYFSHFVPVFLPAKPTTTPAPRPPTPAPTIASQPLSLRPEACRPAAGGAVHTRGLDFACFWVLVVVGGVLACYSLLVTVAFIIFWVRLKIQVRKAAITSYEKSDGVYTGLSTRNQETYETLKHEKPPQ", "values": [{"measurement": "specific killing of SUP-B15 PD-L1+ target cells, 4 h cytotoxicity assay, effector to target ratio of 8", "result": "~70", "unit": "%"}]}]}
